Legend:
[1] = biological target: histamine H2 receptor fused C-terminally to the small fragment of NanoLuc (H2R–NlucC) (human) (UniProt P25021); assay: split reporter (BiFC, NanoBiT); split-NanoLuc mini-G protein recruitment assay in live HEK293T cells transiently co-expressing receptor–NlucC and NlucN–mini-G; recruitment upon histamine (serial dilutions), 37 °C, L-15 medium with 10 mM HEPES, furimazine; AUC of 45 min traces normalised to 100 µM histamine in the canonical system (H2R–mGs or H4R–mGsi, 100%) and L-15 (0%); N = 3, each in triplicate
Chain of UniProt P25021 (P25021 whole entry, the tested form may be a part): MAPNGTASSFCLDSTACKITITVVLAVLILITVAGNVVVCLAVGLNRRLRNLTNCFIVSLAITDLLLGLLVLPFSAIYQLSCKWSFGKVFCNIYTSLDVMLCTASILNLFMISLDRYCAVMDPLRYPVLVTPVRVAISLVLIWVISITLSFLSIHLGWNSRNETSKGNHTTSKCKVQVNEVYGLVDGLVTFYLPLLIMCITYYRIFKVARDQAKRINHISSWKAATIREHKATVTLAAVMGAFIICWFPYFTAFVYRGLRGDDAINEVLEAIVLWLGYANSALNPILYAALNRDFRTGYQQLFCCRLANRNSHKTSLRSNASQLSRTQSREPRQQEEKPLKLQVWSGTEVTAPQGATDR

[2] = biological target: histamine H4 receptor fused C-terminally to the small fragment of NanoLuc (H4R–NlucC) (human) (UniProt Q9H3N8); assay: as above

Row | Emax of histamine (mini-G recruitment) [1] | pEC50 of histamine (mini-G recruitment) [1] | Emax of histamine (mini-G recruitment) [2] | pEC50 of histamine (mini-G recruitment) [2] | Substance
1 | 100% | 6.86 | -13.5% | – | mini-G protein mGs fused N-terminally to the large fragment of NanoLuc (NlucN–mGs)
2 | 29.6% | 5.48 | 13.8% | – | mini-G protein mGsq fused N-terminally to the large fragment of NanoLuc (NlucN–mGsq)
3 | 26.8% | 5.3 | 100% | 6.6 | mini-G protein mGsi fused N-terminally to the large fragment of NanoLuc (NlucN–mGsi)
